From publication PMC12172977

Target: CCHFV nucleocapsid protein (N protein) (Crimean-Congo hemorrhagic fever virus (strain 10200?)) (UniProt P89522)
Experiment: filter binding

Sequence of UniProt P89522 (P89522 whole entry): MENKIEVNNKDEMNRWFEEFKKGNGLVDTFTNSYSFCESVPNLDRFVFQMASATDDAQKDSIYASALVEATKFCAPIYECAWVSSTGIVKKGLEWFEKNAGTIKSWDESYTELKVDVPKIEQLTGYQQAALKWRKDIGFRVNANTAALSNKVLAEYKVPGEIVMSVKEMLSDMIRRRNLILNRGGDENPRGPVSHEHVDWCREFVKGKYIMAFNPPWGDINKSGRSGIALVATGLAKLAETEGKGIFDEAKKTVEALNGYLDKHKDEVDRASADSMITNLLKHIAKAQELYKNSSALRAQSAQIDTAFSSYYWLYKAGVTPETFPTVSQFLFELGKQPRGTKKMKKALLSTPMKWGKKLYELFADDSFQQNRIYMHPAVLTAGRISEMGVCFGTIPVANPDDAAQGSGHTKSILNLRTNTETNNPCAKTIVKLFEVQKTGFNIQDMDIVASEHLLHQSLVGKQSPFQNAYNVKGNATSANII

Luc mRNA-1 (WT S-segment 5' UTR + luciferase ORF + truncated S 3' UTR)
Kd: 42 nM
